Source: paper PMC6707248, “hCINAP regulates the DNA-damage response and mediates the resistance of acute myelocytic leukemia cells to therapy” (Nature Communications, 2019)

Target: T1, GST-NPM1 (unSUMOylated) (UniProt P06748 1-294)
T1 construct: Nucleophosmin (NPM1); also called GST-tagged NPM1; unSUMOylated GST-NPM1; source: E. coli, purified
Test: pull-down; in vitro GST pull-down; His-hCINAP and GST-NPM1 purified from E. coli; GST protein as negative control
Settings: both partners purified

T1 sequence (P06748 whole entry): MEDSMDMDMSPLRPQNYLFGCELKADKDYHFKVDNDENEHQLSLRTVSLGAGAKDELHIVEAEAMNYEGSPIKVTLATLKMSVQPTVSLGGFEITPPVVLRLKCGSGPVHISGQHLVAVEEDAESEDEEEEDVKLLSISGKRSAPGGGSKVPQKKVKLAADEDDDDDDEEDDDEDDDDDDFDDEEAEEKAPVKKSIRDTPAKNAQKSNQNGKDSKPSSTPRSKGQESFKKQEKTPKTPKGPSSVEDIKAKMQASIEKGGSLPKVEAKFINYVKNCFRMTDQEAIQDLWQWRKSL

B1: His-hCINAP (natural protein, human, UniProt Q9Y3D8 1-172, looked up)
chain: MLLPNILLTGTPGVGKTTLGKELASKSGLKYINVGDLAREEQLYDGYDEEYDCPILDEDRVVDELDNQMREGGVIVDYHGCDFFPERWFHIVFVLRTDTNVLYERLETRGYNEKKLTDNIQCEIFQVLYEEATASYKEEIVHQLPSNKPEELENNVDQILKWIEQWIKDHNS
notes: source: E. coli, purified
- binding result: binds
